This passage reports Kd results from paper PMC6557989 (2019).

The target in assay [1] is T1, C4b-binding protein (C4BP), human, purified from plasma (human, UniProt P04003 49-597; P20851 18-252, ^125I-labelled in the binding assay on bacteria).
T1 chain 1: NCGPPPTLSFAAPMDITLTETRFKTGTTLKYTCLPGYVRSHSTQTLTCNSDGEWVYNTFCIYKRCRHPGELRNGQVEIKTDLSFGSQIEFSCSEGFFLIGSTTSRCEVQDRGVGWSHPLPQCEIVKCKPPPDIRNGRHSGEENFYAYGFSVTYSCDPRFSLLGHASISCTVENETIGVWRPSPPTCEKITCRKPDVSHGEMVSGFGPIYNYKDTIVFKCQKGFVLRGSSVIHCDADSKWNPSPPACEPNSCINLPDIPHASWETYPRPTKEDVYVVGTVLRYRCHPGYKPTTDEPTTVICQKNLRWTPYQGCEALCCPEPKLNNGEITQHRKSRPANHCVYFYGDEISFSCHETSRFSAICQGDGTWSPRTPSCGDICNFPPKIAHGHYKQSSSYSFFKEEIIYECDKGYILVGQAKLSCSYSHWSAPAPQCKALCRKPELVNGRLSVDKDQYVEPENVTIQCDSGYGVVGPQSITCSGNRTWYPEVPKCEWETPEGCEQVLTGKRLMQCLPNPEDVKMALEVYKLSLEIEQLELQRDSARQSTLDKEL
T1 chain 2: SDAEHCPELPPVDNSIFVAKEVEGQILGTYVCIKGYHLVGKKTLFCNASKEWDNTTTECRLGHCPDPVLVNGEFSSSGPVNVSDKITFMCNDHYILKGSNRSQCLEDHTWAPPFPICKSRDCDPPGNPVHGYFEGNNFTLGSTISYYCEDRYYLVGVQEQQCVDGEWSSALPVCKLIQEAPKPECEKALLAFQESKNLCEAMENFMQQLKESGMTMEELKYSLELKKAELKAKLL
The assay can be described thus: SEC; n = 26 binding sites per C4BP. A general note: SEC sorts molecules by how far they enter the pores of the column.

Assay [2] addresses pooled human IgG (IVIG; Kiovig) (human). The assay can be described thus: SEC; n = 1.1 binding sites per Protein H.

B1: Protein H (natural protein)
chain: EGAKIDWQEEYKKLDEDNAKLVEVVETTSLENEKLKSENEENKKNLDKLSKENQGKLEKLELDYLKKLDHEHKEHQKEQQEQEERQKNQEQLERKYQREVEKRYQEQLQKQQQLETEKQISEASRKSLSRDLEASRAAKKDLEAEHQKLEAEHQKLKEDKQISDASRQGLSRDLEASRAAKKELEANHQKLEAEHQKLKEDKQISDASRQGLSRDLEASRAAKKELEANHQKLEAEAKALKEQLAKQAEELAKLRAGKASDSQTPDTKPGNKAVPGKGQAPQAGTKPNQNKAPMKETKRQLPST
modifications: ^125I-labelled in the plate binding assay; Alexa-488 succinimidyl ester-labelled in thermophoresis; unlabelled elsewhere
For B1, the Kd (usually the concentration at which binding is half-saturated) in assay [1] was found to be 1300 nM; in assay [2], 78 nM.
